In paper doi:10.1101/2024.05.05.592606 (bioRxiv, 2024):
* marks the point of attachment. 5FAM = O=C1OC2(c3ccc(O)cc3Oc3cc(O)ccc32)c2ccc(C(=O)*)cc21

Molecular target: human LRH-1 (NR5A2) ligand-binding domain (LBD) (human, UniProt O00482-1 266-541)
Assay: fluorescence polarisation

Sequence of human LRH-1 (NR5A2) ligand-binding domain (LBD) (O00482 266-541): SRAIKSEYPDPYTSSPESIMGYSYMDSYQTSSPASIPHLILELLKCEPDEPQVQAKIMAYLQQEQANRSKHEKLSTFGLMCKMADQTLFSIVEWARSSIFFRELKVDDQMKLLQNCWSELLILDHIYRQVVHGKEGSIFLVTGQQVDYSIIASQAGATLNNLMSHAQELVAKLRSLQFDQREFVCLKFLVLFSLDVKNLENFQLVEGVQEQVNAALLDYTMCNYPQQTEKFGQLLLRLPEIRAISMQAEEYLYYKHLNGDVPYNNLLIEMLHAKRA

B1: PGC1α FAM-labeled coregulator peptide (peptide)
peptide: 5FAM-EEPSLLKKLLLAPA-OH
SMILES: CC(C)C[C@H](NC(=O)[C@H](CC(C)C)NC(=O)[C@H](CC(C)C)NC(=O)[C@H](CCCCN)NC(=O)[C@H](CCCCN)NC(=O)[C@H](CC(C)C)NC(=O)[C@H](CC(C)C)NC(=O)[C@H](CO)NC(=O)[C@@H]1CCCN1C(=O)[C@H](CCC(=O)O)NC(=O)[C@H](CCC(=O)O)NC(=O)c1ccc2c(c1)C(=O)OC21c2ccc(O)cc2Oc2cc(O)ccc21)C(=O)N[C@@H](C)C(=O)N1CCC[C@H]1C(=O)N[C@@H](C)C(=O)O
binding result: binds

B2: SHP-1 FAM-labeled coregulator peptide (peptide)
peptide: 5FAM-RPTILYALLSPSPR-OH
SMILES: CC[C@H](C)[C@H](NC(=O)[C@@H](NC(=O)[C@@H]1CCCN1C(=O)[C@H](CCCNC(=N)N)NC(=O)c1ccc2c(c1)C(=O)OC21c2ccc(O)cc2Oc2cc(O)ccc21)[C@@H](C)O)C(=O)N[C@@H](CC(C)C)C(=O)N[C@@H](Cc1ccc(O)cc1)C(=O)N[C@@H](C)C(=O)N[C@@H](CC(C)C)C(=O)N[C@@H](CC(C)C)C(=O)N[C@@H](CO)C(=O)N1CCC[C@H]1C(=O)N[C@@H](CO)C(=O)N1CCC[C@H]1C(=O)N[C@@H](CCCNC(=N)N)C(=O)O
binding result: binds

B3: DAX1-3 FAM-labeled coregulator peptide (peptide)
peptide: 5FAM-QGSILYSLLMSAKQ-OH
SMILES: CC[C@H](C)[C@H](NC(=O)[C@H](CO)NC(=O)CNC(=O)[C@H](CCC(N)=O)NC(=O)c1ccc2c(c1)C(=O)OC21c2ccc(O)cc2Oc2cc(O)ccc21)C(=O)N[C@@H](CC(C)C)C(=O)N[C@@H](Cc1ccc(O)cc1)C(=O)N[C@@H](CO)C(=O)N[C@@H](CC(C)C)C(=O)N[C@@H](CC(C)C)C(=O)N[C@@H](CCSC)C(=O)N[C@@H](CO)C(=O)N[C@@H](C)C(=O)N[C@@H](CCCCN)C(=O)N[C@@H](CCC(N)=O)C(=O)O
binding result: binds
